Data as given in the supplement of paper PMC6757056.
± gives the standard deviation of the averaged measurements.

B1: library; a variant is named by its letters at N, in order (parent)
chain: GCUGUCACCGAGAAACUGUGAAGUAUAUCUUAAACCUGGGCACUUAAAAGAUAUAUGGAGUUAGUAGUGCAACCUGCUCGGUCUGAUGAGUCCNNNNNNGGACGAAACAGC

Key:
cyclic di-GMP [1] = variants of: B1; assay: normalized RNA/DNA level without ligand (relative to sTRSVctl = 100) (log10 (% of sTRSVctl)); HEK293T; ligand: cyclic di-GMP (c-di-GMP-II aptamer); higher = less ribozyme self-cleavage, higher mRNA level; details: reporter: mCherry (pCS4076), ligand present: no
Method in brief: (§1)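 Ribozyme switch library plasmids linked to reporters were introduced into HEK293T cells at 4 µg per 6-well well, with ligand, if any, added 1 h before. Total RNA was extracted with EDTA 72 h later, reverse-transcribed, amplified, barcoded and sequenced. RNA level was computed from RNA over DNA reads relative to a spiked-in non-cleaving sequence or the top sequences, then scaled and log-transformed. The top set was 25 sequences, values were ×100 and log10, and the cutoff was ≥100 DNA reads.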

cyclic di-GMP [2] = variants of: B1; assay: normalized RNA/DNA level with ligand (relative to sTRSVctl = 100) (log10 (% of sTRSVctl)); HEK293T; ligand: cyclic di-GMP (c-di-GMP-II aptamer); ligand concentration (+) RNA-Seq: 1 mM; higher = less ribozyme self-cleavage, higher mRNA level; details: reporter: mCherry (pCS4076), ligand present: yes
Method in brief: as §1

Row | Variant | normalized RNA/DNA level without ligand (log10) (cyclic di-GMP [1]) | normalized RNA/DNA level with ligand (log10) (cyclic di-GMP [2])
1 | GAGUAU | 1.79 ± 0.024 | 1.86 ± 0.099
2 | GAGUAC | 1.8 ± 0.059 | 1.87 ± 0.11
3 | UAGUUC | 1.71 ± 0.031 | 1.89 ± 0.057
4 | UAGUUA | 1.67 ± 0.025 | 1.83 ± 0.13
5 | CAUGCA | 1.52 ± 0.05 | 1.66 ± 0.067
6 | CAUGCG | 1.81 ± 0.029 | 1.9 ± 0.14
7 | CAUGCU | 1.72 ± 0.056 | 1.84 ± 0.097
8 | CAUGCC | 1.79 ± 0.029 | 1.89 ± 0.15
9 | AAUCUA | 1.55 ± 0.055 | 1.75 ± 0.071
10 | AAUCUU | 1.74 ± 0.09 | 1.86 ± 0.1
11 | AAUCUC | 1.74 ± 0.032 | 1.86 ± 0.075
12 | AAUCUG | 1.62 ± 0.031 | 1.8 ± 0.061
13 | GAUAAG | 1.54 ± 0.036 | 1.72 ± 0.1
14 | GAUAAC | 1.675 ± 0.0073 | 1.85 ± 0.1
15 | GAUGAG | 1.55 ± 0.067 | 1.71 ± 0.059
16 | GAUGAA | 1.45 ± 0.1 | 1.65 ± 0.067
17 | GAUGAC | 1.65 ± 0.019 | 1.82 ± 0.12
18 | GAUGAU | 1.56 ± 0.064 | 1.75 ± 0.099
19 | AAUCAA | 1.51 ± 0.1 | 1.73 ± 0.078
20 | AAUCAC | 1.71 ± 0.027 | 1.83 ± 0.096
21 | AAUCAU | 1.64 ± 0.02 | 1.78 ± 0.093
22 | AAUCAG | 1.61 ± 0.057 | 1.76 ± 0.026
23 | GAGUUU | 1.79 ± 0.031 | 1.87 ± 0.11

Row | Variant | normalized RNA/DNA level without ligand (log10) (cyclic di-GMP [1]) | normalized RNA/DNA level with ligand (log10) (cyclic di-GMP [2])
24 | GAGUUC | 1.81 ± 0.069 | 1.9 ± 0.06
25 | GAUGGU | 1.64 ± 0.057 | 1.8 ± 0.063
26 | GAUGGC | 1.68 ± 0.051 | 1.8 ± 0.13
27 | GAUGGG | 1.54 ± 0.081 | 1.67 ± 0.16
28 | GAUAGC | 1.64 ± 0.019 | 1.76 ± 0.14
29 | GAUAGA | 1.46 ± 0.11 | 1.64 ± 0.094
30 | GAUAGG | 1.573 ± 0.0085 | 1.73 ± 0.087
31 | GAUAGU | 1.62 ± 0.045 | 1.78 ± 0.1
32 | GAUACC | 1.758 ± 0.0066 | 1.89 ± 0.066
33 | GAUACG | 1.62 ± 0.019 | 1.76 ± 0.12
34 | GAUACU | 1.7 ± 0.025 | 1.82 ± 0.068
35 | CAGGGU | 1.673 ± 0.014 | 1.82 ± 0.096
36 | GAUUAC | 1.722 ± 0.0096 | 1.83 ± 0.081
37 | GAUUAU | 1.62 ± 0.022 | 1.77 ± 0.07
38 | GAUUAG | 1.68 ± 0.046 | 1.8 ± 0.089
39 | CAGGUG | 1.62 ± 0.056 | 1.76 ± 0.084
40 | CAGGUA | 1.57 ± 0.081 | 1.67 ± 0.11
41 | CAGGUU | 1.798 ± 0.0047 | 1.88 ± 0.053
42 | CAGGUC | 1.76 ± 0.021 | 1.84 ± 0.094
43 | GAUCAC | 1.727 ± 0.016 | 1.84 ± 0.085
44 | GAUCAG | 1.8 ± 0.054 | 1.9 ± 0.13
45 | UAUGGA | 1.53 ± 0.017 | 1.73 ± 0.098
46 | UAUGGC | 1.708 ± 0.015 | 1.82 ± 0.12

Row | Variant | normalized RNA/DNA level without ligand (log10) (cyclic di-GMP [1]) | normalized RNA/DNA level with ligand (log10) (cyclic di-GMP [2])
47 | UAUGGG | 1.57 ± 0.078 | 1.73 ± 0.1
48 | AAUAGC | 1.62 ± 0.047 | 1.8 ± 0.1
49 | CAUUAC | 1.6236 ± 0.00067 | 1.79 ± 0.13
50 | CAUUAG | 1.74 ± 0.021 | 1.84 ± 0.087
51 | UAGUGC | 1.69 ± 0.024 | 1.82 ± 0.13
52 | UAGUGU | 1.62 ± 0.034 | 1.81 ± 0.13
53 | UAUCGC | 1.76 ± 0.019 | 1.83 ± 0.15
54 | UAUCGA | 1.609 ± 0.0048 | 1.79 ± 0.12
55 | UAUCGG | 1.743 ± 0.0093 | 1.84 ± 0.11
56 | UAUCGU | 1.67 ± 0.02 | 1.79 ± 0.095
57 | CAUCUA | 1.4 ± 0.058 | 1.58 ± 0.066
58 | CAUCUU | 1.56 ± 0.04 | 1.75 ± 0.1
59 | CAUCUG | 1.76 ± 0.073 | 1.88 ± 0.13
60 | UAUCAA | 1.7 ± 0.031 | 1.83 ± 0.11
61 | UAUCAU | 1.656 ± 0.0018 | 1.81 ± 0.12
62 | UAUCAG | 1.72 ± 0.028 | 1.84 ± 0.13
63 | UAUGCU | 1.72 ± 0.043 | 1.86 ± 0.11
64 | UAUGCA | 1.77 ± 0.061 | 1.87 ± 0.16
65 | UAUGCG | 1.78 ± 0.029 | 1.86 ± 0.1
66 | UAUGCC | 1.81 ± 0.042 | 1.91 ± 0.15
67 | AAGUCG | 1.62 ± 0.031 | 1.79 ± 0.089
68 | AAGUCC | 1.76 ± 0.051 | 1.84 ± 0.085
69 | AAGUCU | 1.68 ± 0.058 | 1.8 ± 0.12

Row | Variant | normalized RNA/DNA level without ligand (log10) (cyclic di-GMP [1]) | normalized RNA/DNA level with ligand (log10) (cyclic di-GMP [2])
70 | AAGUCA | 1.63 ± 0.06 | 1.77 ± 0.14
71 | CAUCAU | 1.56 ± 0.064 | 1.72 ± 0.072
72 | CAUCAG | 1.69 ± 0.044 | 1.76 ± 0.13
73 | CAUCAC | 1.67 ± 0.027 | 1.8 ± 0.069
74 | AAGGUC | 1.61 ± 0.034 | 1.75 ± 0.077
75 | CAUGUA | 1.44 ± 0.081 | 1.65 ± 0.072
76 | CAUGUU | 1.72 ± 0.043 | 1.88 ± 0.085
77 | CAUGUC | 1.72 ± 0.035 | 1.82 ± 0.088
78 | CAUGUG | 1.71 ± 0.022 | 1.85 ± 0.092
79 | AAGUAU | 1.62 ± 0.032 | 1.8 ± 0.095
80 | AAGUAA | 1.45 ± 0.12 | 1.63 ± 0.089
81 | AAGUAC | 1.657 ± 0.007 | 1.8 ± 0.14
82 | AAGUAG | 1.68 ± 0.024 | 1.77 ± 0.12
83 | UAUGAG | 1.653 ± 0.0081 | 1.82 ± 0.12
84 | UAUAGG | 1.68 ± 0.023 | 1.85 ± 0.11
85 | AAUAUU | 1.667 ± 0.015 | 1.83 ± 0.083
86 | AAUAUA | 1.53 ± 0.054 | 1.72 ± 0.13
87 | AAUAUC | 1.67 ± 0.022 | 1.81 ± 0.079
88 | AAUAUG | 1.61 ± 0.06 | 1.74 ± 0.11
89 | GAGGUA | 1.698 ± 0.0042 | 1.77 ± 0.1
90 | GAGGUC | 1.68 ± 0.042 | 1.82 ± 0.11
91 | GAGGUU | 1.73 ± 0.072 | 1.85 ± 0.083
92 | GAGGUG | 1.74 ± 0.049 | 1.84 ± 0.087

Row | Variant | normalized RNA/DNA level without ligand (log10) (cyclic di-GMP [1]) | normalized RNA/DNA level with ligand (log10) (cyclic di-GMP [2])
93 | AAUGUC | 1.68 ± 0.03 | 1.84 ± 0.11
94 | AAUGUA | 1.525 ± 0.01 | 1.64 ± 0.16
95 | UAUGUU | 1.65 ± 0.008 | 1.79 ± 0.15
96 | UAUGUG | 1.71 ± 0.047 | 1.86 ± 0.13
97 | UAUGUC | 1.73 ± 0.034 | 1.85 ± 0.099
98 | AAUUCC | 1.79 ± 0.028 | 1.88 ± 0.14
99 | AAUUCG | 1.6472 ± 0.0012 | 1.8 ± 0.12
100 | AAUUCA | 1.62 ± 0.078 | 1.8 ± 0.12
101 | AAGUUU | 1.724 ± 0.0032 | 1.88 ± 0.076
102 | AAGUUG | 1.56 ± 0.072 | 1.75 ± 0.11
103 | AAGUUC | 1.6603 ± 0.0013 | 1.84 ± 0.11
104 | CAGUGA | 1.52 ± 0.043 | 1.7 ± 0.12
105 | CAGUGG | 1.68 ± 0.022 | 1.86 ± 0.065
106 | CAGUGC | 1.71 ± 0.05 | 1.81 ± 0.11
107 | CAGUGU | 1.718 ± 0.0057 | 1.84 ± 0.12
108 | CAUUCC | 1.781 ± 0.0028 | 1.87 ± 0.041
109 | CAUUCG | 1.83 ± 0.091 | 1.95 ± 0.14
110 | CAUUCU | 1.55 ± 0.07 | 1.73 ± 0.12
111 | CAUUCA | 1.38 ± 0.087 | 1.56 ± 0.12
112 | AAUACC | 1.71 ± 0.031 | 1.86 ± 0.069
113 | AAUACU | 1.71 ± 0.023 | 1.84 ± 0.085
114 | AAUACA | 1.56 ± 0.017 | 1.74 ± 0.1
115 | GAGUGU | 1.77 ± 0.049 | 1.89 ± 0.09
